# Source: IntAct's records for PubMed 21119616
# B1: Retinoblastoma-associated protein (Homo sapiens), P06400 (parent)
# chain: MPPKTPRKTAATAAAAAAEPPAPPPPPPPEEDPEQDSGPEDLPLVRLEFEETEEPDFTALCQKLKIPDHVRERAWLTWEKVSSVDGVLGGYIQKKKELWGICIFIAAVDLDEMSFTFTELQKNIEISVHKFFNLLKEIDTSTKVDNAMSRLLKKYDVLFALFSKLERTCELIYLTQPSSSISTEINSALVLKVSWITFLLAKGEVLQMEDDLVISFQLMLCVLDYFIKLSPPMLLKEPYKTAVIPINGSPRTPRRGQNRSARIAKQLENDTRIIEVLCKEHECNIDEVKNVYFKNFIPFMNSLGLVTSNGLPEVENLSKRYEEIYLKNKDLDARLFLDHDKTLQTDSIDSFETQRTPRKSNLDEEVNVIPPHTPVRTVMNTIQQLMMILNSASDQPSENLISYFNNCTVNPKESILKRVKDIGYIFKEKFAKAVGQGCVEIGSQRYKLGVRLYYRVMESMLKSEEERLSIQNFSKLLNDNIFHMSLLACALEVVMATYSRSTSQNLDSGTDLSFPWILNVLNLKAFDFYKVIESFIKAEGNLTREMIKHLERCEHRIMESLAWLSDSPLFDLIKQSKDREGPTDHLESACPLNLPLQNNHTAADMYLSPVRSPKKKGSTTRVNSTANAETQATSAFQTQKPLKSTSLSLFYKKVYRLAYLRLNTLCERLLSEHPELEHIIWTLFQHTLQNEYELMRDRHLDQIMMCSMYGICKVKNIDLKFKIIVTAYKDLPHAVQETFKRVLIKEEEYDSIIVFYNSVFMQRLKTNILQYASTRPPTLSPIPHIPRSPYKFPSSPLRIPGGNIYISPLKSPYKISEGLPTPTKMTPRSRILVSIGESFGTSEKFQKINQMVCNSDRVLKRSAEGSNPPKPLKKLRFDIEGSDEADGSKHLPGESKFQQKLAEMTSTRTRMQKQKMNDSMDTSNKEEK
# partner: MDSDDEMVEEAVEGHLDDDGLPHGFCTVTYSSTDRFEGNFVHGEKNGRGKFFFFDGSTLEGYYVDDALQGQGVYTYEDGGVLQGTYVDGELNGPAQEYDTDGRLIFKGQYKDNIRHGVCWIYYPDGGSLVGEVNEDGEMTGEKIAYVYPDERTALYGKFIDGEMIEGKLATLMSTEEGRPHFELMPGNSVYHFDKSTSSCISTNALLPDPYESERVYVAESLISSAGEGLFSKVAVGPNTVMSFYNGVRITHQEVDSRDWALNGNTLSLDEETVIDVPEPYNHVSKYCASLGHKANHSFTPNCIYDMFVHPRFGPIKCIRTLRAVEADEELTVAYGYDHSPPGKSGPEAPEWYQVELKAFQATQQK
# Variants of: B1
# Conditions: with setd7_human SETD7, Q8WTS6
row,Variant,effect of a mutation on the interaction
1,K810R,disrupting interaction
